The nature of data set [1]: Absorption and emission spectrum peak wavelengths of UV wavelength conversion substances. It counts as physicochemical.
The test system of data set [2] is Human dermal fibroblasts. Put plainly: Restoration of cell activity decreased by prior UV irradiation (AlamarBlue). The conditions noted are these: pre-irradiation 400 mJ/cm^2 without substance, then UV 0 to 200 mJ/cm^2 through 0.4% or 2% C-phycocyanin; effect equivalent at both concentrations; FIG. 5. It counts as cell-based. The method, then: (§1) 1. Human dermal fibroblasts and human skin keratinocytes purchased from Kurabo Industries Ltd. were used. A cell suspension (1 mL) stored in liquid nitrogen was thawed in a water bath (37° C.) to an extent that small ice pellets remained, and then diluted with 9 mL of warm medium. 2. The diluted suspension was mixed gently and then transferred to a T75 flask and incubated overnight at 37° C. 3. The next day, the medium was replaced with 10 mL of fresh medium. 4. The medium was replaced periodically (once every 2 days for fibroblasts and once every 2 to 3 days for keratinocytes) and cell proliferation was continued. Meanwhile, the cells were observed using a microscope, and it was confirmed that the cells grew in the correct form. 5. After the cells reached about 80% confluence, the cells were passaged. The cells were passaged by washing the cells once with 10 mL of warm PBS, adding 5 mL of warm trypsin to a T75 flask, covering the bottom of the flask with a trypsin solution, followed by aspirating at room temperature for 1 minute. 6. The flask was allowed to stand in an oven at 37° C. for (maximum) 2 minutes for fibroblasts and (maximum) 7 minutes for keratinocytes. The cells were observed using a microscope and confirmed to be small and oval. 7. Thereafter, the side of the T75 flask was lightly tapped to release the cells. […]

Data set [3] has as its system Human dermal fibroblasts. As to the kind of experiment: Cell activity (AlamarBlue) of cells UV-irradiated through a solution of UV wavelength conversion substance. Type of data set: cell-based. The conditions noted are these: UV 0 to 100 mJ/cm^2, FIG. 3. Here is the method: The UV wavelength conversion substances (3) and (4) were dispersed in alcohol to prepare 5% and 10% dispersions.
as §1, with “7.” for “7. Thereafter, the side of the T75 flask was lightly tapped to release the cells.”
A general note: Resazurin is reduced to fluorescent resorufin, in cell work by metabolically active cells.

Where “and” joins values, the source holds several entries; their conditions need not be identical. Equal entries are not always repeated.

As for C-phycocyanin, in data set [1], the “absorption spectrum peak wavelength” value came to 350 nm; the “emission spectrum peak wavelength” value was 640 nm and 700 nm. Further, the “cell activity after activity was once decreased by UV” value in data set [2] is “cell activity was recovered”. Besides, the “cell activity (relative fluorescence intensity, AlamarBlue)” value in data set [3] (0.4% C-phycocyanin solution) was “the decrease in cell activity was suppressed”. Further, the “cell activity (relative fluorescence intensity, AlamarBlue)” value in data set [3] (2% C-phycocyanin solution, compared to no UV irradiation) is recorded as “the cell activity was even increased”.
As for B-phycoerythrin, in data set [1], the “absorption spectrum peak wavelength” value turned out to be 305 nm; the “emission spectrum peak wavelength” value was 570 nm and 610 nm.

The values are drawn from patent publication US20220175647A1, “COSMETIC PREPARATION CONTAINING ULTRAVIOLET WAVELENGTH CONVERSION MATERIAL AND WATER-SOLUBLE THICKENING AGENT” (Shiseido Company, Ltd., priority 2019, published 2022).
